{"source": "paper PMC3902948", "data": [{"substrate": "Nc1ncnc2c1ncn2[C@@H]1O[C@H](COP(=O)(O)OP(=O)(O)OP(=O)(O)O)[C@@H](O)[C@H]1O", "assay": "purified protein", "conditions": "no RNA, 100 mM NaCl, 10 mM Tris pH 7.5, 2 mM MgCl2", "units": {"Km": "µM", "Vmax": "µM/min"}, "values": [{"protein": "Prp43 (Saccharomyces cerevisiae S288C) (protein) MGSKRRFSSEHPDPVETSIPEQAAEIAEELSKQHPLPSEEPLVHHDAGEFKGLQRHHTSAEEAQKLEDGKINPFTGREFTPKYVDILKIRRELPVHAQRDEFLKLYQNNQIMVFVGETGSGKTTQIPQFVLFDEMPHLENTQVACTQPRRVAAMSVAQRVAEEMDVKLGEEVGYSIRFENKTSNKTILKYMTDGMLLREAMEDHDLSRYSCIILDEAHERTLATDILMGLLKQVVKRRPDLKIIIMSATLDAEKFQRYFNDAPLLAVPGRTYPVELYYTPEFQRDYLDSAIRTVLQIHATEEAGDILLFLTGEDEIEDAVRKISLEGDQLVREEGCGPLSVYPLYGSLPPHQQQRIFEPAPESHNGRPGRKVVISTNIAETSLTIDGIVYVVDPGFSKQKVYNPRIRVESLLVSPISKASAQQRAGRAGRTRPGKCFRLYTEEAFQKELIEQSYPEILRSNLSSTVLELKKLGIDDLVHFDFMDPPAPETMMRALEELNYLACLDDEGNLTPLGRLASQFPLDPMLAVMLIGSFEFQCSQEILTIVAMLSVPNVFIRPTKDKKRADDAKNIFAHPDGDHITLLNVYHAFKSDEAYEYGIHKWCRDHYLNYRSLSAADNIRSQLERLMNRYNLELNTTDYESPKYFDNIRKALASGFFMQVAKKRSGAKGYITVKDNQDVLIHPSTVLGHDAEWVIYNEFVLTSKNYIRTVTSVRPEWLIEIAPAYYDLSNFQKGDVKLSLERIKEKVDRLNELKQGKNKKKSKHSKK", "Km": "11.07 ± 2.07", "Vmax": 2.43}, {"protein": "Prp43/Ntr1(1–120) (Saccharomyces cerevisiae S288C) (protein) MGSKRRFSSEHPDPVETSIPEQAAEIAEELSKQHPLPSEEPLVHHDAGEFKGLQRHHTSAEEAQKLEDGKINPFTGREFTPKYVDILKIRRELPVHAQRDEFLKLYQNNQIMVFVGETGSGKTTQIPQFVLFDEMPHLENTQVACTQPRRVAAMSVAQRVAEEMDVKLGEEVGYSIRFENKTSNKTILKYMTDGMLLREAMEDHDLSRYSCIILDEAHERTLATDILMGLLKQVVKRRPDLKIIIMSATLDAEKFQRYFNDAPLLAVPGRTYPVELYYTPEFQRDYLDSAIRTVLQIHATEEAGDILLFLTGEDEIEDAVRKISLEGDQLVREEGCGPLSVYPLYGSLPPHQQQRIFEPAPESHNGRPGRKVVISTNIAETSLTIDGIVYVVDPGFSKQKVYNPRIRVESLLVSPISKASAQQRAGRAGRTRPGKCFRLYTEEAFQKELIEQSYPEILRSNLSSTVLELKKLGIDDLVHFDFMDPPAPETMMRALEELNYLACLDDEGNLTPLGRLASQFPLDPMLAVMLIGSFEFQCSQEILTIVAMLSVPNVFIRPTKDKKRADDAKNIFAHPDGDHITLLNVYHAFKSDEAYEYGIHKWCRDHYLNYRSLSAADNIRSQLERLMNRYNLELNTTDYESPKYFDNIRKALASGFFMQVAKKRSGAKGYITVKDNQDVLIHPSTVLGHDAEWVIYNEFVLTSKNYIRTVTSVRPEWLIEIAPAYYDLSNFQKGDVKLSLERIKEKVDRLNELKQGKNKKKSKHSKK", "Km": "16.37 ± 1.81", "Vmax": 11.2}, {"protein": "Prp43/Ntr1(51–110) (Saccharomyces cerevisiae S288C) (protein) MGSKRRFSSEHPDPVETSIPEQAAEIAEELSKQHPLPSEEPLVHHDAGEFKGLQRHHTSAEEAQKLEDGKINPFTGREFTPKYVDILKIRRELPVHAQRDEFLKLYQNNQIMVFVGETGSGKTTQIPQFVLFDEMPHLENTQVACTQPRRVAAMSVAQRVAEEMDVKLGEEVGYSIRFENKTSNKTILKYMTDGMLLREAMEDHDLSRYSCIILDEAHERTLATDILMGLLKQVVKRRPDLKIIIMSATLDAEKFQRYFNDAPLLAVPGRTYPVELYYTPEFQRDYLDSAIRTVLQIHATEEAGDILLFLTGEDEIEDAVRKISLEGDQLVREEGCGPLSVYPLYGSLPPHQQQRIFEPAPESHNGRPGRKVVISTNIAETSLTIDGIVYVVDPGFSKQKVYNPRIRVESLLVSPISKASAQQRAGRAGRTRPGKCFRLYTEEAFQKELIEQSYPEILRSNLSSTVLELKKLGIDDLVHFDFMDPPAPETMMRALEELNYLACLDDEGNLTPLGRLASQFPLDPMLAVMLIGSFEFQCSQEILTIVAMLSVPNVFIRPTKDKKRADDAKNIFAHPDGDHITLLNVYHAFKSDEAYEYGIHKWCRDHYLNYRSLSAADNIRSQLERLMNRYNLELNTTDYESPKYFDNIRKALASGFFMQVAKKRSGAKGYITVKDNQDVLIHPSTVLGHDAEWVIYNEFVLTSKNYIRTVTSVRPEWLIEIAPAYYDLSNFQKGDVKLSLERIKEKVDRLNELKQGKNKKKSKHSKK", "Km": "13.42 ± 1.93", "Vmax": 9.54}]}]}
